Assay [1] concerns the target T1, glutathione-S-transferase (GST)-fused shFcRn (human, UniProt P55899 24-290; P61769 21-119, limits assumed).
T1 construct: Made as in Berntzen et al. 2005 / FEBS J. 2008; also called shFcRn-GST; GST-tagged shFcRn; not shown: GST tag
Put plainly: ELISA: albumin coated at the concentration on the axis, shFcRn-GST in solution, pH 6.0. The method, then: One hundred μl of the substrate tetramethylbenzidine (TMB) (Calbiochem) was added to each well and incubated for 45 min before 100 μl of 0.25 M HCl was added. The absorbance was measured at 450 nm using a Sunrise TECAN spectrophotometer (TECAN, Maennedorf, Switzerland). The same ELISA was repeated with PBS/T pH 7.4.
Commercially available animal albumin (either Sigma-Aldrich or Calbiochem) were further purified as described in Andersen et al (2010). J. Biol. Chem. 285, (7), 4826-4836.

In assay [2] the target is T2, mouse serum albumin (mouse, UniProt P07724 25-608).
T2 construct: mature; also called MSA; MouseSA
Put plainly: SPR, FcRn immobilized, 1:1 Langmuir model. On the procedure: SPR analyses were performed on a BIAcore 3000 instrument (GE Healthcare) using CM5 chips and immobilization of smFcRn-GST and shFcRn-GST variants or smFcRn was performed using the amine coupling kit (GE Healthcare). Protein samples (10 μg/ml) were injected in 10 mM sodium acetate at pH 4.5 (GE Healthcare), all as described by the manufacturer. Unreacted moieties on the surface were blocked with 1 M ethanolamine. For all experiments, phosphate buffer (67 mM phosphate buffer, 0.15 M NaCl, 0.005% TWEEN® 20) at pH 6.0 or pH 7.4, or HBS-P buffer (0.01 M HEPES, 0.15 M NaCl, 0.005% surfactant P20) at pH 7.4 were used as running buffer or dilution buffer. Kinetic measurements were performed using a low density immobilized surface (100-200 resonance units (RU)). […] In all cases, to correct for nonspecific binding and bulk buffer effects, responses obtained from the control surfaces and blank injections were subtracted from each interaction curve. Kinetic rate values were calculated using predefined models (Langmuir 1:1 ligand model, heterogeneous ligand model and steady state affinity model) provided by the BIAevaluation 4.1 software.
The KD's were generated using the B|Aevaluation 4.1 software) A Langmuir 1:1 ligand model was used throughout. The kinetic values represent the average or triplicates. ND means: Not determined. NA means: Not acquired
For orientation: In SPR one partner is held on a chip, and binding of the other changes the refractive index at the surface.

T1 sequence (P55899 24-290 limits assumed, chain 1 of 2): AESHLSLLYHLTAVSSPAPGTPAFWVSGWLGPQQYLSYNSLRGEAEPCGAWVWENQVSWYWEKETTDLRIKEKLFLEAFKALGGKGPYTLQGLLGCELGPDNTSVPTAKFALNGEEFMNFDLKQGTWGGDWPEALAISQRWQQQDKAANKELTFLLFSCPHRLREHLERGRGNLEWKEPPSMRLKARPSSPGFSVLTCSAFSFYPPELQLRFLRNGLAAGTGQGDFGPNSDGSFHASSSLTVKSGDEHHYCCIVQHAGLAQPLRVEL
T1 sequence (P61769 21-119 limits assumed, chain 2 of 2): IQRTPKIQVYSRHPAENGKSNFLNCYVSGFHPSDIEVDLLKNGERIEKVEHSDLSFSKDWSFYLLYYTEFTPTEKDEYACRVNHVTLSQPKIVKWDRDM

B1: donkey serum albumin (ligand, UniProt Q5XLE4 25-607, looked up)
chain: DTHKSEIAHRFNDLGEKHFKGLVLVAFSQYLQQCPFEDHVKLVNEVTEFAKKCAADESAENCDKSLHTLFGDKLCTVATLRATYGELADCCEKQEPERNECFLTHKDDHPNLPKLKPEPDAQCAAFQEDPDKFLGKYLYEVARRHPYFYGPELLFHAEEYKADFTECCPADDKAGCLIPKLDALKERILLSSAKERLKCSSFQKFGERAFKAWSVARLSQKFPKADFAEVSKIVTDLTKVHKECCHGDLLECADDRADLTKYICEHQDSISGKLKACCDKPLLQKSHCIAEVKEDDLPSDLPALAADFAEDKEICKHYKDAKDVFLGTFLYEYSRRHPDYSVSLLLRIAKTYEATLEKCCAEADPPACYATVFDQFTPLVEEPKSLVKKNCDLFEEVGEYDFQNALIVRYTKKAPQVSTPTLVEIGRTLGKVGSRCCKLPESERLPCSENHLALALNRLCVLHEKTPVSEKITKCCTDSLAERRPCFSALELDEGYIPKEFKAETFTFHADICTLPEDEKQIKKQSALAELVKHKPKATKEQLKTVLGNFSAFVAKCCGAEDKEACFAEEGPKLVASSQLALA
notes: mature
B1: in assay [1], the 50% effective concentration (EC50 (read off the curve)) (as a rule, the concentration giving half of the maximal effect) is ~1 µg/mL.

B2: soluble mouse FcRn (smFcRn) (receptor)
chain 1: SETRPPLMYHLTAVSNPSTGLPSFWATGWLGPQQYLTYNSLRQEADPCGAWMWENQVSWYWEKETTDLKSKEQLFLEALKTLEKILNGTYTLQGLLGCELASDNSSVPTAVFALNGEEFMKFNPRIGNWTGEWPETEIVANLWMKQPDAARKESEFLLNSCPERLLGHLERGRRNLEWKEPPSMRLKARPGNSGSSVLTCAAFSFYPPELKFRFLRNGLASGSGNCSTGPNGDGSFHAWSLLEVKRGDEHHYQCQVEHEGLAQPLTVDLDSSARSS
chain 2: IQKTPQIQVYSRHPPENGKPNILNCYVTQFHPPHIEIQMLKNGKKIPKVEMSDMSFSKDWSFYILAHTEFTPTETDTYACRVKHASMAEPKTVYWDRDM
Take B2: in assay [2], binding was put at a Kd of 9.3 µM; the koff – broadly, the first-order rate constant of dissociation – turned out to be 0.0394 s⁻¹; the kon (as a rule, the second-order rate constant of association) worked out at 4200 M⁻¹ s⁻¹.
